This is an account of results in US20210070829A1 (ZHEJIANG DOER BIOLOGICS, published 2021).

One test has as its target Glucagon receptor. As to the kind of experiment: cell-based or functional assay.
For another test, the target named is human GLP-1 receptor (human, UniProt P43220 24-463). As to the kind of experiment: cell-based or functional assay.

B1: C788L1F5 (Fc fusion)
chain: HSQGTFTSDYSKQMDSQRAQDFVQWLMNTKRNRNNIAGGGGSERKCCVECPPCPAPPVAGPSVFLFPPKPKDTLMISRTPEVTCVVVDVSHEDPEVQFNWYVDGVEVHNAKTKPREEQFNSTFRVVSVLTVVHQDWLNGKEYKCKVSNKGLPSSIEKTISKTKGQPREPQVYTLPPSREEMTKNQVSLTCLVKGFYPSDIAVEWESNGQPENNYKTTPPMLDSDGSFFLYSKLTVDKSRWQQGNVFSCSVMHEALHNHYTQKSLSLSPG
In the case of B1, the “GCGR agonist activity EC50 (luciferase reporter)” value (“GCGR agonist activity EC50” for short) with Glucagon receptor was found to be 26.7 nM. Further, in the test with human GLP-1 receptor, the “GLP-1R agonist activity EC50 (luciferase reporter)” value (shortened to “GLP-1R agonist activity EC50”) turned out to be 18.5 nM.

B2: C225L10F10 (Fc fusion)
chain: HSQGTFTSDYSKYLDERAAQDFVQWLMNTGPSSGAPPPSGGGGAGGGGAGGGGAESKYGPPCPPCPAPEAAGGPSVFLFPPKPKDTLMISRTPEVTCVVVDVSQEDPEVQFNWYVDGVEVHNAKTKPREEQFASTYRVVSVLTVLHQDWLNGKEYKCKVSNKGLPSSIEKTISKAKGQPREPQVYTLPPSQEEMTKNQVSLTCLVKGFYPSDIAVEWESNGQPENNYKTTPPVLDSDGSFFLYSRLTVDKSRWQEGNVFSCSVMHEALHNHYTQKSLSLSLG
Regarding B2, the “GCGR agonist activity EC50” value in the test with Glucagon receptor turned out to be 1.39 nM. Besides, the “GLP-1R agonist activity EC50” value with human GLP-1 receptor was 1.47 nM.

B3: C627L13F10 (Fc fusion)
chain: HSQGTFTSDYSKQMDSQRAQDFVQWLMNGGPSSGAPPPSGGGGAGGGGAGGGGAAESKYGPPCPPCPAPEAAGGPSVFLFPPKPKDTLMISRTPEVTCVVVDVSQEDPEVQFNWYVDGVEVHNAKTKPREEQFASTYRVVSVLTVLHQDWLNGKEYKCKVSNKGLPSSIEKTISKAKGQPREPQVYTLPPSQEEMTKNQVSLTCLVKGFYPSDIAVEWESNGQPENNYKTTPPVLDSDGSFFLYSRLTVDKSRWQEGNVFSCSVMHEALHNHYTQKSLSLSLG
Consider B3, for which, in the test with Glucagon receptor, the “GCGR agonist activity EC50” value was 1.27 nM. Also, in the test with human GLP-1 receptor, the “GLP-1R agonist activity EC50” value was determined as 1.41 nM.
